Source: US20260209386A1 (MYTHIC THERAPEUTICS, published 2026)
Numbering of substitutions follows the chain as printed. Values belong to the binder of their own block, whether it stands above or below them.

Experiments:
[1] = biological target: T1, Human PTK7 Protein, His Tag (Acro Biosystems) (human, UniProt Q13308 31-704); test: BLI (Octet), antibody on anti-human Fc sensor, 50 nM PTK7; grade 2 = substantially similar binding relative to parent
T1 construct: Bought His-tagged protein; also called CCK4; not shown: His tag
T1 sequence: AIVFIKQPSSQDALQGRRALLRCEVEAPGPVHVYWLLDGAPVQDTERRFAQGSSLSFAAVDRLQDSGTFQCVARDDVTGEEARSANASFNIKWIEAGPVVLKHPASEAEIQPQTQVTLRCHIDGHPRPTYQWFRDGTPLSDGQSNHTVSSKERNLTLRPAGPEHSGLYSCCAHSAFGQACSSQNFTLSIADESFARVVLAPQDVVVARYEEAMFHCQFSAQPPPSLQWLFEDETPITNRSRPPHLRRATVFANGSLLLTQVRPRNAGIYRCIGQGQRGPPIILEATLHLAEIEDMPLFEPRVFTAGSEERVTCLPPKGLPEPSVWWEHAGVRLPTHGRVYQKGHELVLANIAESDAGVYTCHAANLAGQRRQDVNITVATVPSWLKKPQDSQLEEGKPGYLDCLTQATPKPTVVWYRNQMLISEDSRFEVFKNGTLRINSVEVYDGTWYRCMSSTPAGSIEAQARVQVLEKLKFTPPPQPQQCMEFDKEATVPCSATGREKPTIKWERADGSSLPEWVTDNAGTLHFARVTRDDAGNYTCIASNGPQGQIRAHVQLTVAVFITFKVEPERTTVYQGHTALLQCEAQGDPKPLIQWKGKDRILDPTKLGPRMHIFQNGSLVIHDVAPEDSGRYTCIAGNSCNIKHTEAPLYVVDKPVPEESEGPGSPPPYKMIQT

[2] = biological target: T2, Human PTK7 Protein, His Tag, Acro Biosystems (human, UniProt Q13308 31-704); test: BLI, anti-human Fc capture, 50 nM PTK7; 2 = substantially similar binding relative to parent
T2 construct: Bought recombinant protein; also called CCK4; not shown: His tag
T2 sequence: T1 sequence

- binding result [1]: binds
B1: MYT11051 (antibody, V domains shown)
VH: EVQLVESGGGLVQPGGSLRLSCTASGLSLSSYWMSWVRQAPGKGLEWVGVISAGGNTYYANWAHGRFTISRDTSKNTVYLQMNSLRAEDTAVYFCARGDDGYTNAAYVSNLWGQGTLVTVSS
VL: EIVMTQSPSTLSASVGDRVIITCQASQSISSWLSWYQQKPGKAPKLLIYKASTLASGVPSRFSGSGSGAEFTLTISSLQPDDFATYYCQSYFDSTTIAFGQGTKLTVL
notes: MYT9361 HC variant

- binding result [1]: binds
B2: MYT11099 (antibody, V domains shown)
VH: B1 VH with H64K
VL: B1 VL with A98H
notes: MYT9361 LC variant

- binding result [1]: binds
B3: MYT11076 (antibody, V domains shown)
VH: B1 VH with H64K
VL: B1 VL with S28H
notes: MYT9361 LC variant

- binding result [1]: binds
B4: MYT11092 (antibody, V domains shown)
VH: B1 VH with H64K
VL: B1 VL with Y91H
notes: MYT9361 LC variant

- binding result [1]: binds
B5: MYT11098 (antibody, V domains shown)
VH: B1 VH with H64K
VL: B1 VL with I97H
notes: MYT9361 LC variant

- binding result [1]: binds
B6: MYT11073 (antibody, V domains shown)
VH: B1 VH with H64K
VL: B1 VL with A25H
notes: MYT9361 LC variant

- binding result [1]: binds
B7: MYT11075 (antibody, V domains shown)
VH: B1 VH with H64K
VL: B1 VL with Q27H
notes: MYT9361 LC variant

- binding result [1]: binds
B8: MYT11088 (antibody, V domains shown)
VH: B1 VH with H64K
VL: B1 VL with A55H
notes: MYT9361 LC variant

- binding result [1]: binds
B9: MYT11074 (antibody, V domains shown)
VH: B1 VH with H64K
VL: B1 VL with S26H
notes: MYT9361 LC variant

- binding result [1]: binds
B10: MYT11052 (antibody, V domains shown)
VH: B1 VH with H64K, G65H
VL: B1 VL
notes: MYT9361 HC variant

- binding result [1]: binds
B11: MYT11054 (antibody, V domains shown)
VH: B1 VH with H64K, R97H
VL: B1 VL

- binding result [1]: binds
B12: MYT11055 (antibody, V domains shown)
VH: B1 VH with H64K, G98H
VL: B1 VL
notes: MYT9361 HC variant

- binding result [1]: binds
B13: MYT11095 (antibody, V domains shown)
VH: B1 VH with H64K
VL: B1 VL with S94H
notes: MYT9361 LC variant

- binding result [1]: binds
B14: MYT11083 (antibody, V domains shown)
VH: B1 VH with H64K
VL: B1 VL with K50H
notes: MYT9361 LC variant

- binding result [1]: binds
B15: MYT11066 (antibody, V domains shown)
VH: B1 VH with H64K, S109H
VL: B1 VL
notes: MYT9361 HC variant

- binding result [1]: binds
B16: MYT11071 (antibody, V domains shown)
VH: B1 VH with H64K, D100A
VL: B1 VL
notes: MYT9361 HC alanine variant

- binding result [1]: binds
B17: MYT11097 (antibody, V domains shown)
VH: B1 VH with H64K
VL: B1 VL with T96H
notes: MYT9361 LC variant

- binding result [1]: binds
B18: MYT11089 (antibody, V domains shown)
VH: B1 VH with H64K
VL: B1 VL with S56H
notes: MYT9361 LC variant

- binding result [1]: binds
B19: MYT11080 (antibody, V domains shown)
VH: B1 VH with H64K
VL: B1 VL with W32H
notes: MYT9361 LC variant

- binding result [1]: binds
B20: MYT11090 (antibody, V domains shown)
VH: B1 VH with H64K
VL: B1 VL with Q89H
notes: MYT9361 LC variant

- binding result [1]: binds
B21: MYT11065 (antibody, V domains shown)
VH: B1 VH with H64K, V108H
VL: B1 VL
notes: MYT9361 HC variant

- binding result [1]: binds
B22: MYT11061 (antibody, V domains shown)
VH: B1 VH with H64K, N104H
VL: B1 VL
notes: MYT9361 HC variant

- binding result [1]: binds
B23: MYT11067 (antibody, V domains shown)
VH: B1 VH with H64K, N110H
VL: B1 VL
notes: MYT9361 HC variant

- binding result [1]: binds
B24: MYT11064 (antibody, V domains shown)
VH: B1 VH with H64K, Y107H
VL: B1 VL
notes: MYT9361 HC variant

- binding result [1]: binds
B25: MYT11070 (antibody, V domains shown)
VH: B1 VH with H64K, D99A
VL: B1 VL
notes: MYT9361 HC alanine variant

- binding result [1]: binds
B26: MYT11087 (antibody, V domains shown)
VH: B1 VH with H64K
VL: B1 VL with L54H
notes: MYT9361 LC variant

- binding result [1]: binds
B27: MYT11060 (antibody, V domains shown)
VH: B1 VH with H64K, T103H
VL: B1 VL
notes: MYT9361 HC variant

- binding result [1]: binds
B28: MYT11086 (antibody, V domains shown)
VH: B1 VH with H64K
VL: B1 VL with T53H
notes: MYT9361 LC variant

- binding result [1]: binds
B29: MYT11057 (antibody, V domains shown)
VH: B1 VH with H64K, D100H
VL: B1 VL
notes: MYT9361 HC variant

- binding result [1]: binds
B30: MYT11072 (antibody, V domains shown)
VH: B1 VH with H64K
VL: B1 VL with Q24H
notes: MYT9361 LC variant

- binding result [1]: binds
B31: MYT11085 (antibody, V domains shown)
VH: B1 VH with H64K
VL: B1 VL with S52H
notes: MYT9361 LC variant

- binding result [1]: binds
B32: MYT11062 (antibody, V domains shown)
VH: B1 VH with H64K, A105H
VL: B1 VL
notes: MYT9361 HC variant

- binding result [2]: binds
B33: MYT11102 (antibody, V domains shown)
VH: EVQLVESGGGLVQPGGSLRLSCTASHFSLSTYAMSWVRQAPGKGLEWVGMIYINDNTYYASWAKGRFTISRDTSKNTVYLQMNSLRAEDTAVYFCARDIGISYYIGVSLWGQGTLVTVSS
VL: EIVMTQSPSTLSASVGDRVIITCQASQSIGTRLSWYQQKPGKAPKLLIYGASKLATGVPSRFSGSGSGAEFTLTISSLQPDDFATYYCLGEYSYTTTDGIAFGQGTKLTVL
notes: MYT9412 HC variant

- binding result [2]: binds
B34: MYT11104 (antibody, V domains shown)
VH: B33 VH with H26G, S28H
VL: B33 VL
notes: MYT9412 HC variant

- binding result [2]: binds
B35: MYT11118 (antibody, V domains shown)
VH: B33 VH with H26G, N56H
VL: B33 VL
notes: MYT9412 HC variant

- binding result [2]: binds
B36: MYT11113 (antibody, V domains shown)
VH: B33 VH with H26G, I51H
VL: B33 VL
notes: MYT9412 HC variant

- binding result [2]: binds
B37: MYT11116 (antibody, V domains shown)
VH: B33 VH with H26G, N54H
VL: B33 VL
notes: MYT9412 HC variant

- binding result [2]: binds
B38: MYT11110 (antibody, V domains shown)
VH: B33 VH with H26G, M34H
VL: B33 VL
notes: MYT9412 HC variant

- binding result [2]: binds
B39: MYT11109 (antibody, V domains shown)
VH: B33 VH with H26G, A33H
VL: B33 VL
notes: MYT9412 HC variant
